# According to patent publication US20130196915, “AFFINITY HYDROGELS FOR CONTROLLED PROTEIN RELEASE” (published 2013):
# B1: 61-nt anti-PDGF-BB aptamer (ssDNA)
# DNA: AAAAAAAAAAACAGGCTACGGCACGTAGAGCATCACCATGATCCTGTGACTTGAGCAAAAT
# modifications: 5'-NH2
# Key:
# PDGF-BB [1] = target: T1, PDGF-BB (Homo sapiens, UniProt P01127 P01127:82-190); experiment: SPR; virtually same as S1; settings: tags: R&D Systems; amine-coupled to SPR chip; chain copies: 2 (inferred, homodimer)
# Protocol: (§1) The affinities of the aptamers were measured with surface plasmon resonance (SPR) spectrometry (SR7000DC, Reichert Analytical Instrument, Depew, N.Y.). Carboxyl group-functionalized sensor chips were purchased from the Reichert Analytical Instrument. The chips were initially activated with 0.2 M EDC/0.1 M NHS for 10 min After the activation step, PDGF-BB (20 μg/ml in 25 mM Na₂HPO₄ at pH 8.5) was flowed over the activated sensor chip for protein immobilization. Before the test, the system was equilibrated with the running buffer for 30 min. The running buffer was made of PBS buffer (pH 7.4) containing 0.05% Tween 20. During the test, the aptamer solution was flowed over the sensor chip at a flow rate of 30 μL/minute for 5 minutes. Subsequently, the flowing solution was switched to the running buffer for molecular dissociation. After each test, the sensor chip was regenerated by flowing 1 M NaCl in the channel for 2 minutes and then washed with the running buffer. To determine the dissociation constants, a series of aptamer solutions were prepared with the concentration ranging from 3.13 to 200 nM. The data were processed with the Scrubber 2.0 software (BioLogic Software, Australia). The responses from the reference channel were subtracted from the responses from analyte channel before data analysis to minimize the effects of reflective index changes, nonspecific binding, and instrument drift. The dissociation constant (KD) was determined by fitting the data to a simple biomolecular “1:1 binding” model.
# PDGF-BB [2] = target: T1, PDGF-BB; experiment: SPR; PBS with 500 nM scrambled CO during dissociation; settings: tags: R&D Systems; amine-coupled to SPR chip; chain copies: 2 (inferred, homodimer)
# Protocol: The molecular interaction between the PDGF-BB and its aptamer was studied using the SPR spectrometry (SR7000DC; Reichert Analytical Instrument; Depew, N.Y.). A carboxyl group-functionalized sensor chip (Reichert Analytical Instrument; Depew, N.Y.) was activated with NHS and EDC for PDGF-BB immobilization. The binding solution of 100 nM of either anti-PDGF-BB aptamers or scrambled aptamers was flowed over the biochip for 5 minutes (30 μL/min) for the analysis of molecular association. Subsequently, the washing solution (PBS, PBS containing 500 nM of CO, or PBS containing 500 nM of S—CO) was introduced over the biochip for another five minutes (30 μL/min) for the analysis of molecular dissociation. The biochip was regenerated by flowing 1 M of NaCl in the channel for two minutes (100 μL/min) followed by the PBS. The dissociation rate constant (koff) was obtained by fitting the binding profiles with the Scrubber 2.0 software as provided by the manufacturer.
# Because real applications were involve not only aptamers and COs, but also target proteins, surface plasmon resonance (SPR) was used to directly examine the intermolecular hybridization-mediated protein dissociation (FIG. 11).
# PDGF-BB [3] = target: T1, PDGF-BB; experiment: SPR; PBS, 0.05% Tween 20; settings: tags: R&D Systems, amine-coupled to SPR chip, chain copies: 2 (inferred, homodimer)
# Protocol: The molecular interaction between PDGF-BB and the aptamers were studied by SPR spectrometry (SR7000DC, Reichert Analytical Instrument, Depew, N.Y.). PDGF-BB was immobilized onto a sensor chip via amide synthesis. An aqueous solution of NHS (0.0115 g/ml) and EDC (0.038 g/ml) was flowed over the sensor chip at a flow rate of 30 μL/min. After the EDC/NHS-mediated activation of the biochip surface for 10 min, 10 μg/mL of PDGF-BB solution (pH 8.5) was flowed over the chip surface for protein immobilization. Prior to the molecular recognition analysis, the sensor chip was equilibrated for 30 min with a phosphate-buffered saline (PBS) solution containing 0 05% Tween 20. During the binding analysis, 500 nM of binding solution containing either anti-PDGF-BB aptamer or its control was flowed over the biochip at 30 μL/min. The biochip was regenerated with 1 M of NaCl. The binding analysis was repeated twice to confirm the reproducibility. The equilibrium dissociation constant (KD) was calculated with direct curve fitting of the sensorgrams using the software provided by the manufacturer.
# Polyacrylamide gel and anti-platelet-derived growth factor-BB (PDGF-BB) aptamer were used as a model system. […] The binding functionality was evaluated with surface plasmon resonance (SPR) analysis, which directly provides information on the binding affinity.
# PDGF-BB [4] = target: T1, PDGF-BB; experiment: SPR; PBS pH 7.4, 0.05% Tween 20; equilibrium analysis; settings: tags: R&D Systems; amine-coupled to SPR chip; chain copies: 2 (inferred, homodimer)
# Protocol: as §1
# The interaction of a molecular pair was determined by not only molecular association but also molecular dissociation. The dissociation rate constant divided by the association rate constant is defined as the equilibrium dissociation constant (KD). Thus, a series of aptamer solutions were prepared and the aptamer-protein interactions were characterized by calculating the dissociation constants (FIG. 19). The concentration-dependent responses were processed to calculate KD using an equilibrium analysis. […]
# PDGF-BB [5] = target: T1, PDGF-BB; experiment: SPR; reference for normalized response; PBS pH 7.4, 0.05% Tween 20; settings: tags: R&D Systems; amine-coupled to SPR chip; chain copies: 2 (inferred, homodimer); three-stem junction with 10-nt 5' tail
# Protocol: The affinities of the aptamers were measured with surface plasmon resonance (SPR) spectrometry (SR7000DC, Reichert Analytical Instrument, Depew, N.Y.). Carboxyl group-functionalized sensor chips were purchased from the Reichert Analytical Instrument. The chips were initially activated with 0.2 M EDC/0.1 M NHS for 10 min After the activation step, PDGF-BB (20 μg/ml in 25 mM Na₂HPO₄ at pH 8.5) was flowed over the activated sensor chip for protein immobilization. Before the test, the system was equilibrated with the running buffer for 30 min. The running buffer was made of PBS buffer (pH 7.4) containing 0.05% Tween 20. During the test, the aptamer solution was flowed over the sensor chip at a flow rate of 30 μL/minute for 5 minutes. Subsequently, the flowing solution was switched to the running buffer for molecular dissociation. After each test, the sensor chip was regenerated by flowing 1 M NaCl in the channel for 2 minutes and then washed with the running buffer. To determine the dissociation constants, a series of aptamer solutions were prepared with the concentration ranging from 3.13 to 200 nM. The data were processed with the Scrubber 2.0 software (BioLogic Software, Australia). […] The dissociation constant (KD) was determined by fitting the data to a simple biomolecular “1:1 binding” model.
# PDGF-BB [6] = target: T1, PDGF-BB; experiment: SPR; COs did not significantly accelerate dissociation; koff only in figure; settings: tags: R&D Systems; amine-coupled to SPR chip; chain copies: 2 (inferred, homodimer); three-stem junction
# T1 sequence (P01127 82-190, one chain of several): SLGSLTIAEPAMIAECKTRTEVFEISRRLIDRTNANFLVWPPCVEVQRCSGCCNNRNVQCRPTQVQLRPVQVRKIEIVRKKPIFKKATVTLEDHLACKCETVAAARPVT
binder,measurement,setting,value
TCGCACATGCACAGGCTACGGCACGTAGAGCATCACCATGATCCTG (ssDNA) [S6],binding result,PDGF-BB [1],binds
CAATTCCGCGACAGGCTACGGCACGTAGAGCATCACCATGATCCTG (ssDNA) [S2],binding result,PDGF-BB [1],binds
B1,koff,PDGF-BB [2],0.00065 s⁻¹
CATGAGCCCTACAGGCTACGGCACGTAGAGCATCACCATGATCCTG (ssDNA) [S10],binding result,PDGF-BB [1],binds
"GCGATACTCCACAGGCTACGGCACGTAGAGCATCACCATGATCCTG (ssDNA, 5'-Acrydite) [anti-PDGF-BB aptamer (higher affinity, 46-nt)]",Kd,PDGF-BB [3]; three-stem junction with 10-nt 5' tail,25 nM
GCGATACTCCACAGGCTACGGCACGTAGAGCATCACCATGATCCTA (ssDNA) [M1],Kd,PDGF-BB [4],27.6 nM
GCGATACTCCACAGGCTACGGCACGTAGAGCATCACCATGATCCTG (ssDNA) [S1],binding result,PDGF-BB [5],binds
GCGATACTCCACAGGCTACGGCACGTAGAGCATCACCATGATCTCA (ssDNA) [M3],Kd,PDGF-BB [4],354 nM
GCGATACTCCACAGGCTACGGCACGTAGAGCATCACCATGATCCCA (ssDNA) [M2],Kd,PDGF-BB [4],109 nM
ACAGGCTACGGCACGTAGAGCATCACCATGATCCTG (ssDNA) [36-nt truncated aptamer],binding result,PDGF-BB [6],binds
CCACGGTCTAACAGGCTACGGCACGTAGAGCATCACCATGATCCTG (ssDNA) [S3],binding result,PDGF-BB [1],binds
CGCCATTCAGACAGGCTACGGCACGTAGAGCATCACCATGATCCTG (ssDNA) [S4],binding result,PDGF-BB [1],binds
"GCGATACTCCACAGCTGACGGCACGGTAAGCATCACCATGATGTCC (ssDNA, 5'-Acrydite) [control (lower-affinity) aptamer]",Kd,PDGF-BB [3],220 nM
GCAACTGCTCACAGGCTACGGCACGTAGAGCATCACCATGATCCTG (ssDNA) [S9],binding result,PDGF-BB [1],binds
